Results as given in patent publication US20200317768A1 (published 2020).

T1: cynomolgus monkey FcγRIIa3 extracellular domain, His-tagged (cynomolgus monkey)
T1 construct: also called cyno FcγRIIa3; FcgRIIa3; not shown: His-tag added to the C-terminus
T1 chain: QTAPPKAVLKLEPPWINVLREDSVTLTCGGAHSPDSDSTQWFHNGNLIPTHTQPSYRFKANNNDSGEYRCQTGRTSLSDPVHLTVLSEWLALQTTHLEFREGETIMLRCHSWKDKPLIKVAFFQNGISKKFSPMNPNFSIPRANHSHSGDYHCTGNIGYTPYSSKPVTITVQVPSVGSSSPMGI

T2: human FcγRIIaR extracellular domain, His-tagged (human, UniProt P12318 34-217)
T2 construct: also called human FcγRIIa (type R); FcgRIIaR; not shown: His-tag added to the C-terminus
T2 chain: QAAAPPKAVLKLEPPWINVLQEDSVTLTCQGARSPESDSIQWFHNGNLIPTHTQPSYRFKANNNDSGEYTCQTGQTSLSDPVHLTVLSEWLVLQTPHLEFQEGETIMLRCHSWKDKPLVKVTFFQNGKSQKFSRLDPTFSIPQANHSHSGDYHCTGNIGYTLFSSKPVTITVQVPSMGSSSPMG

T3: human FcγRIIb extracellular domain, His-tagged (human, UniProt P31994 43-217)
T3 construct: also called FcgRIIb (human); not shown: His-tag added to the C-terminus
T3 sequence: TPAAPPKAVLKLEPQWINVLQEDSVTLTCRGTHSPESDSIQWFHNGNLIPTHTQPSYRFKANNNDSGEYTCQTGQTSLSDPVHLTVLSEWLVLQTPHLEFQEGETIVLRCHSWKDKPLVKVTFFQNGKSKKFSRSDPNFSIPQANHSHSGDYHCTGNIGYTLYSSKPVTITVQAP

T4: cynomolgus monkey FcγRIIb extracellular domain, His-tagged (cynomolgus monkey)
T4 construct: also called cyno FcγRIIb; cynoFcγRIIb; not shown: His-tag added to the C-terminus
T4 chain: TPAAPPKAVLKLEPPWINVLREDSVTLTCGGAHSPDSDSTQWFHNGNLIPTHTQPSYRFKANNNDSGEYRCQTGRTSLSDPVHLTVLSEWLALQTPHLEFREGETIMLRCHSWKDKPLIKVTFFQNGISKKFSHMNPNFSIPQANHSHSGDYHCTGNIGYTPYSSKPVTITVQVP

T5: cynomolgus monkey FcγRIIa1 extracellular domain, His-tagged (cynomolgus monkey)
T5 construct: also called cyno FcγRIIa1; FcgRIIa1; not shown: His-tag added to the C-terminus
T5 chain: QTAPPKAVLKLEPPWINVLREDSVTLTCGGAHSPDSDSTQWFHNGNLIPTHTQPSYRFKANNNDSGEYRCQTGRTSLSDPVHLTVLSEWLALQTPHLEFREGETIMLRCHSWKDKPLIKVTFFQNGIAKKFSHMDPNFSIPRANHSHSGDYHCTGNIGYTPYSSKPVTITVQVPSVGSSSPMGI

T6: human FcγRIIaH extracellular domain, His-tagged (human, UniProt P12318 34-217)
T6 construct: also called human FcγRIIa (type H); FcgRIIaH; not shown: His-tag added to the C-terminus
T6 sequence: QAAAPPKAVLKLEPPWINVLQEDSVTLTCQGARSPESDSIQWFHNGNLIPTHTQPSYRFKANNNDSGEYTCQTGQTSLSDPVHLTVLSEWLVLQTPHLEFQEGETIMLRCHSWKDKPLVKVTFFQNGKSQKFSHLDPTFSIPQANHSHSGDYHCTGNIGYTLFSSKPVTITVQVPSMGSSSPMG

T7: cynomolgus monkey FcγRIIa2 extracellular domain, His-tagged (cynomolgus monkey)
T7 construct: also called cyno FcγRIIa2; FcgRIIa2; not shown: His-tag added to the C-terminus
T7 chain: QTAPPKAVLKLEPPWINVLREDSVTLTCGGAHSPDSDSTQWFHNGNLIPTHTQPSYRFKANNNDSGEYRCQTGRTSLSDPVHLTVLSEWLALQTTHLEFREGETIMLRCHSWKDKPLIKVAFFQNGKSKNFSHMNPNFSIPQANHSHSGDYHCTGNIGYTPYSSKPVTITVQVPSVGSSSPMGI


Assays:
Assay in all cases: SPR (BIACORE), antibody captured on chip, FcγR as analyte, 25 C; KD of SG1 divided by KD of the variant
[1] = target: T1, cynomolgus monkey FcγRIIa3 …
Method: (§1) After the measurement, the antibody captured on the chip was washed off by allowing reaction with 10 mM glycine-HCl, pH1.5 and 25 mM NaOH so that the chip was regenerated and used repeatedly. The sensorgrams obtained as measurement results were analyzed by the 1:1 Langmuir binding model using the BIACORE® Evaluation Software to calculate the binding rate constant ka (L/mol/s) and dissociation rate constant kd (l/s), and the dissociation constant KD (mol/L) was calculated from these values. […] Regarding such interactions, KD values were calculated using the following 1:1 binding model described in BIACORE® T100 Software Handbook BR1006-48 Edition AE.
(§2) The behavior of interacting molecules according to the 1:1 binding model on BIACORE® can be described by Equation 1: Req=C·R max/(KD+C)+RI, wherein, Req is a plot of steady-state binding levels to analyte concentration. C is concentration, RI is bulk refractive index contribution in the sample, and Rmax is analyte binding capacity of the surface. When this equation is rearranged, KD can be expressed as Equation 2: KD=C·Rmax/(Req−RI)−C. KD can be calculated by substituting the values of Rmax, RI, and C into Equation 1 or Equation 2. From the current measurement conditions, RI=0, C=2 μmol/L can be used.

[2] = target: T8, human FcγRIIIaV extracellular domain, His-tagged (human, UniProt P08637 17-208)
T8 construct: also called human FcγRIIIa (allotype V158); FcgRIIIaV; not shown: His-tag added to the C-terminus
T8 sequence (P08637 17-208 F176V): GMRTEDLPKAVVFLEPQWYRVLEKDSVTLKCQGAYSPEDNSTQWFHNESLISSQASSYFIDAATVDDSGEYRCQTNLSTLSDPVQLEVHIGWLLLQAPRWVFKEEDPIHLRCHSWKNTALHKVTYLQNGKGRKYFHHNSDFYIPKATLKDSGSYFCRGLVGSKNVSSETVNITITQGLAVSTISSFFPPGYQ
Method: as §1, §2

[3] = target: T2, human FcγRIIaR extracellular domain, …
Method: as §1, §2

[4] = target: T3, human FcγRIIb extracellular domain, …
Method: as §1, §2

[5] = target: T4, cynomolgus monkey FcγRIIb extracellular …
Method: as §1, §2

[6] = target: T5, cynomolgus monkey FcγRIIa1 …
Method: as §1, §2

[7] = target: T9, cynomolgus monkey FcγRIIIaS extracellular domain, His-tagged (cynomolgus monkey, UniProt A3RFZ7 21-206 (rhesus entry))
T9 construct: also called cyno FcγRIIIaS; FcgRIIIaS; not shown: His-tag added to the C-terminus
T9 sequence (A3RFZ7 21-206): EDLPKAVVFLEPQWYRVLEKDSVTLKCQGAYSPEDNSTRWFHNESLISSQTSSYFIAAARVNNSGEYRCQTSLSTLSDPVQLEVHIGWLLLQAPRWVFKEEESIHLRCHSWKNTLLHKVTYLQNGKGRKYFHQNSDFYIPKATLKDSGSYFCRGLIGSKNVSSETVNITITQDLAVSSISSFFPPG
Method: as §1, §2

[8] = target: T6, human FcγRIIaH extracellular domain, …
Method: as §1, §2

[9] = target: T7, cynomolgus monkey FcγRIIa2 …
Method: as §1, §2

KD fold for cynoFcgRs (SG1 = 1) [1] [fold] | KD fold for humanFcgRs (SG1 = 1) [2] [fold] | KD fold for humanFcgRs (SG1 = 1) [3] [fold] | KD fold for humanFcgRs (SG1 = 1) [4] [fold] | KD fold for cynoFcgRs (SG1 = 1) [5] [fold] | KD fold for cynoFcgRs (SG1 = 1) [6] [fold] | KD fold for cynoFcgRs (SG1 = 1) [7] [fold] | KD fold for humanFcgRs (SG1 = 1) [8] [fold] | KD fold for cynoFcgRs (SG1 = 1) [9] [fold] | Binder
4.6 | 0.13 | 5.2 | 28.8 | 3.1 | 1.7 | 0.16 | 2.6 | 1.6 | M103205H795-MY329 / M103202L889-SK1 (antibody, human IgG1, kappa, Fc variant made by introducing the substitutions into M103205H795-SG1; the list of substitutions runs over r151c2 and r152c2; Expressed with M103202L889-SK1 as light chain) heavy: QVTLKESGPVLVKPTETLTLTCTVSGIDLSHDDISWVRQAPGKGLEWVGIISYAGSTYYASWAKGRLTISKDTSKNQVVLTMTNMDPVDTATYYCARGVPAYSHGGDLWGQGTLVTVSSASTKGPSVFPLAPSSKSTSGGTAALGCLVKDYFPEPVTVSWNSGALTSGVHTFPAVLQSSGLYSLSSVVTVPSSSLGTQTYICNVNHKPSNTKVDKKVEPKSCDKTHTCPPCPAPELLDGPSVFLFPPKPKDTLMISRTPEVTCVVVDVSDEDPEVKFNWYVDGVEVHNAKTKPREELYNSTYRVVSVLTVLHQDWLNGKEYKCKVSNKALPKPIEKTISKAKGQPREPQVYTLPPSREEMTKNQVSLTCLVKGFYPSDIAVEWESNGQPENNYKTTPPVLDSDGSFFLYSKLTVDKSRWQQGNVFSCSVMHEALHNHYTQKSLSLSP light: DIVMTQSPATLSLSPGERATLSCTSSQSVYHANWLSWFQQKPGQPPKLLIYWASTLAYGVPSRFSGSGSGTDFTLTISSLQPEDAATYYCAGGYGGGRYAFGQGTKVEIKRTVAAPSVFIFPPSDEQLKSGTASVVCLLNNFYPREAKVQWKVDNALQSGNSQESVTEQDSKDSTYSLSSTLTLSKADYEKHKVYACEVTHQGLSSPVTKSFNRGEC
2.9 | 0.1 | 3.7 | 17.7 | 1.8 | 0.8 | 0.09 | 1.4 | 1.2 | M103205H795-MY325 / M103202L889-SK1 (antibody, human IgG1, kappa, expressed with M103202L889-SK1 as light chain) heavy: QVTLKESGPVLVKPTETLTLTCTVSGIDLSHDDISWVRQAPGKGLEWVGIISYAGSTYYASWAKGRLTISKDTSKNQVVLTMTNMDPVDTATYYCARGVPAYSHGGDLWGQGTLVTVSSASTKGPSVFPLAPSSKSTSGGTAALGCLVKDYFPEPVTVSWNSGALTSGVHTFPAVLQSSGLYSLSSVVTVPSSSLGTQTYICNVNHKPSNTKVDKKVEPKSCDKTHTCPPCPAPELLDGPSVFLFPPKPKDTLMISRTPEVTCVVVDVSDEDPEVKFNWYVDGVEVHNAKTKPREEQYNSTYRVVSVLTVLHQDWLNGKEYKCKVSNKALPKPIEKTISKAKGQPREPQVYTLPPSREEMTKNQVSLTCLVKGFYPSDIAVEWESNGQPENNYKTTPPVLDSDGSFFLYSKLTVDKSRWQQGNVFSCSVMHEALHNHYTQKSLSLSP light: DIVMTQSPATLSLSPGERATLSCTSSQSVYHANWLSWFQQKPGQPPKLLIYWASTLAYGVPSRFSGSGSGTDFTLTISSLQPEDAATYYCAGGYGGGRYAFGQGTKVEIKRTVAAPSVFIFPPSDEQLKSGTASVVCLLNNFYPREAKVQWKVDNALQSGNSQESVTEQDSKDSTYSLSSTLTLSKADYEKHKVYACEVTHQGLSSPVTKSFNRGEC
3.2 | 0.08 | 3.3 | 27 | 1.8 | 0.9 | 0.08 | 2 | 1.1 | M103205H795-MY327 / M103202L889-SK1 (antibody, human IgG1, kappa, Fc variant made by introducing the substitutions into M103205H795-SG1; the list of substitutions runs over r149c2 and r150c2; Expressed with M103202L889-SK1 as light chain) heavy: QVTLKESGPVLVKPTETLTLTCTVSGIDLSHDDISWVRQAPGKGLEWVGIISYAGSTYYASWAKGRLTISKDTSKNQVVLTMTNMDPVDTATYYCARGVPAYSHGGDLWGQGTLVTVSSASTKGPSVFPLAPSSKSTSGGTAALGCLVKDYFPEPVTVSWNSGALTSGVHTFPAVLQSSGLYSLSSVVTVPSSSLGTQTYICNVNHKPSNTKVDKKVEPKSCDKTHTCPPCPAPELLDGPSVFLFPPKPKDTLMISRTPEVTCVVVDVSEEDPEVKFNWYVDGVEVHNAKTKPREELYNSTYRVVSVLTVLHQDWLNGKEYKCKVSNKALPKPIEKTISKAKGQPREPQVYTLPPSREEMTKNQVSLTCLVKGFYPSDIAVEWESNGQPENNYKTTPPVLDSDGSFFLYSKLTVDKSRWQQGNVFSCSVMHEALHNHYTQKSLSLSP light: DIVMTQSPATLSLSPGERATLSCTSSQSVYHANWLSWFQQKPGQPPKLLIYWASTLAYGVPSRFSGSGSGTDFTLTISSLQPEDAATYYCAGGYGGGRYAFGQGTKVEIKRTVAAPSVFIFPPSDEQLKSGTASVVCLLNNFYPREAKVQWKVDNALQSGNSQESVTEQDSKDSTYSLSSTLTLSKADYEKHKVYACEVTHQGLSSPVTKSFNRGEC
